The values that follow come from paper PMC10208894, “The SmNPR4-SmTGA5 module regulates SA-mediated phenolic acid biosynthesis in Salvia miltiorrhiza hairy roots”.

The target in data set [1] is T1, SmTGA5 (Salvia miltiorrhiza, UniProt UPI0025ACD97B 1-458).
T1 sequence: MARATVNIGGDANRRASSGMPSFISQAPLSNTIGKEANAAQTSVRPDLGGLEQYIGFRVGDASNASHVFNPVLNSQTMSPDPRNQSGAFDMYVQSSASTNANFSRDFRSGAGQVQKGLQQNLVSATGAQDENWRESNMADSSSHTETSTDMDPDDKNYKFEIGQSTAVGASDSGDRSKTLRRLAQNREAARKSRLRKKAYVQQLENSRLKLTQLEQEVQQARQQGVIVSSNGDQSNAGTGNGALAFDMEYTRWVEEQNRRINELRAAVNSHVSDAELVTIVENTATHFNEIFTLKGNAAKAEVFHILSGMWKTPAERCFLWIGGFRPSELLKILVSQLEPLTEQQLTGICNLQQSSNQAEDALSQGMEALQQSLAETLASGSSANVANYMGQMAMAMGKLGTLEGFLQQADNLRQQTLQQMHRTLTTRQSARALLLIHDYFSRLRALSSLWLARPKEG
In words: EMSA; Beyotime GS009 EMSA kit, 20-25 C, 20 min, acrylamide gel; buffer, salt and pH not stated. The note with it: protein: recombinant; tags: His (pET32a, N-terminal fusion); chain copies: 2; blunt.

Data set [2] deals with T1, SmTGA5. In words: EMSA; unlabeled probe at 1:10 and 1:100 reduces the shift; Beyotime GS009 EMSA kit, 20-25 C, 20 min, acrylamide gel; buffer, salt and pH not stated. The note with it: protein: recombinant; tags: His (pET32a, N-terminal fusion); chain copies: 2; blunt.

B1: Mut-Probe-pTAT1 (dsDNA)
DNA 1: TTTAAAGTTAAATGTATCATTTAAAGTTAAATGTATCATTTAAAGTTAAATGTATCA
DNA 2: TGATACATTTAACTTTAAATGATACATTTAACTTTAAATGATACATTTAACTTTAAA
As for B1, the binding result in data set [1] was “no binding”.

B2: Probe-pTAT1 (3x as-1) (dsDNA)
DNA 1: TTTAAAGTGACGTGTATCATTTAAAGTGACGTGTATCATTTAAAGTGACGTGTATCA
DNA 2: TGATACACGTCACTTTAAATGATACACGTCACTTTAAATGATACACGTCACTTTAAA
Regarding B2, the binding result in data set [2] is given as “binds”.
